According to article PMC10023571, “EGOC inhibits TOROID polymerization by structurally activating TORC1” (Nature Structural & Molecular Biology, 2023):

B1: Kog1 (Kog1-TAP) in the TOROID (natural protein, S. cerevisiae)
chain: MPEIYGPQPLKPLNTVMRHGFEEQYQSDQLLQSLANDFIFYFDDKRHKTNGNPIPEEDKQRDVNRYYQPITDWKIMKDRQKTVSAALLLCLNLGVDPPDVMKTHPCARVEAWVDPLNFQDSKKAIEQIGKNLQAQYETLSLRTRYKQSLDPCVEDVKRFCNSLRRTSKEDRILFHYNGHGVPKPTKSGEIWVFNRGYTQYIPVSLYDLQTWLGAPCIFVYDCNSAENILINFQKFVQKRIKDDEEGNHDVAAPSPTSAYQDCFQLASCTSDELLLMSPELPADLFSCCLTCPIEISIRIFLMQSPLKDSKYKIFFENSTSNQPFGDSKNSFKSKIPNVNIPGMLSDRRTPLGELNWIFTAITDTIAWTSLPRPLFKKLFRHDLMIAALFRNFLLAKRIMPWYNCHPVSDPELPDSITTHPMWKSWDLAMDEVLTKIVIDLKNAPPATALESQMILQQQETLQNGGSSKSNAQDTKAGSIQTQSRFAVANLSTMSLVNNPALQSRKSISLQSSQQQLQQQQQQQQQFTGFFEQNLTAFELWLKYASNVRHPPEQLPIVLQVLLSQVHRIRALVLLSRFLDLGPWAVYLSLSIGIFPYVLKLLQSPAPELKPILVFIWARIMSIDYKNTQSELIKEKGYMYFVTVLVPDWGVNGMSATNGSAMINSGNPLTMTASQNINGPSSRYYERQQGNRTSNLGHNNLPFYHSNDTTDEQKAMAVFVLASFVRNFPLGQKNCFSLELVNKLCFYIDNSEIPLLRQWCVILLGLLFADNPLNRFVCMNTGAVEILLKSLKDPVPEVRTASIFALKHFISGFQDAEVILRLQQEFEEQYQQLHSQLQHLQNQSHLQQQQSQQQQQHLEQQQMKIEKQIRHCQVMQNQLEVIDLRKLKRQEIGNLISILPLINDGSSLVRKELVVYFSHIVSRYSNFFIVVVFNDLLEEIKLLEKSDINTRNTSDKYSVSQGSIFYTVWKSLLILAEDPFLENKELSKQVIDYILLELSAHKELGGPFAVMEKFLLKRSSKAHQTGKFGFNSSQVQFVKSSLRSFSPNERVDNNAFKKEQQQHDPKISHPMRTSLAKLFQSLGFSESNSDSDTQSSNTSMKSHTSKKGPSGLYLLNGNNNIYPTAETPRFRKHTEPLQLPLNSSFLDYSREYFQEPQMKKQEADEPGSVEYNARLWRRNRNETIIQETQGEKKLSIYGNWSKKLISLNNKSQPKLMKFAQFEDQLITADDRSTITVFDWEKGKTLSKFSNGTPFGTKVTDLKLINEDDSALLLTGSSDGVIKIYRDYQDVDTFKIVSAWRGLTDMLLTPRSTGLLTEWLQIRGSLLTTGDVKVIRVWDAHTETVEVDIPAKTSSLITSLTADQLAGNIFVAGFADGSLRVYDRRLDPRDSMIRRWRAGNDKQGVWINNVHLQRGGYRELVSGATNGVVELWDIRSEDPVESFVDQNVTSQYGSQQKPTTMTCMQVHEHAPIIATGTKQIKIWTTSGDLLNSFKNSHNNGVTSTLAATGIPKSLSYSSTSDAFLSSMAFHPHRMMIAATNSHDSIVNIYKCEDERIDYF
notes: Kog1, S. cerevisiae, expressed as KOG1-TAP; source: S. cerevisiae KOG1-TAP ∆tor1 cells grown PDS, purified as TOROID

What was measured:
Test in all cases: cryo-EM structure; TOROID filaments purified from KOG1-TAP ∆tor1 cells grown PDS (subunits co-purified from yeast); helical reconstruction, then signal subtraction and single particle analysis, 3.87 Å
[1] = target: the molecule itself
Tor2 in the TOROID = target: T1, Tor2 in the TOROID (S. cerevisiae (endogenous in S. …, UniProt P32600 1-2474)); details: both partners purified
T1 construct: Tor2, S. cerevisiae; source: S. cerevisiae KOG1-TAP ∆tor1 cells grown PDS, purified as TOROID

[2] = target: B1; details: both partners purified

T1 sequence (P32600 whole entry): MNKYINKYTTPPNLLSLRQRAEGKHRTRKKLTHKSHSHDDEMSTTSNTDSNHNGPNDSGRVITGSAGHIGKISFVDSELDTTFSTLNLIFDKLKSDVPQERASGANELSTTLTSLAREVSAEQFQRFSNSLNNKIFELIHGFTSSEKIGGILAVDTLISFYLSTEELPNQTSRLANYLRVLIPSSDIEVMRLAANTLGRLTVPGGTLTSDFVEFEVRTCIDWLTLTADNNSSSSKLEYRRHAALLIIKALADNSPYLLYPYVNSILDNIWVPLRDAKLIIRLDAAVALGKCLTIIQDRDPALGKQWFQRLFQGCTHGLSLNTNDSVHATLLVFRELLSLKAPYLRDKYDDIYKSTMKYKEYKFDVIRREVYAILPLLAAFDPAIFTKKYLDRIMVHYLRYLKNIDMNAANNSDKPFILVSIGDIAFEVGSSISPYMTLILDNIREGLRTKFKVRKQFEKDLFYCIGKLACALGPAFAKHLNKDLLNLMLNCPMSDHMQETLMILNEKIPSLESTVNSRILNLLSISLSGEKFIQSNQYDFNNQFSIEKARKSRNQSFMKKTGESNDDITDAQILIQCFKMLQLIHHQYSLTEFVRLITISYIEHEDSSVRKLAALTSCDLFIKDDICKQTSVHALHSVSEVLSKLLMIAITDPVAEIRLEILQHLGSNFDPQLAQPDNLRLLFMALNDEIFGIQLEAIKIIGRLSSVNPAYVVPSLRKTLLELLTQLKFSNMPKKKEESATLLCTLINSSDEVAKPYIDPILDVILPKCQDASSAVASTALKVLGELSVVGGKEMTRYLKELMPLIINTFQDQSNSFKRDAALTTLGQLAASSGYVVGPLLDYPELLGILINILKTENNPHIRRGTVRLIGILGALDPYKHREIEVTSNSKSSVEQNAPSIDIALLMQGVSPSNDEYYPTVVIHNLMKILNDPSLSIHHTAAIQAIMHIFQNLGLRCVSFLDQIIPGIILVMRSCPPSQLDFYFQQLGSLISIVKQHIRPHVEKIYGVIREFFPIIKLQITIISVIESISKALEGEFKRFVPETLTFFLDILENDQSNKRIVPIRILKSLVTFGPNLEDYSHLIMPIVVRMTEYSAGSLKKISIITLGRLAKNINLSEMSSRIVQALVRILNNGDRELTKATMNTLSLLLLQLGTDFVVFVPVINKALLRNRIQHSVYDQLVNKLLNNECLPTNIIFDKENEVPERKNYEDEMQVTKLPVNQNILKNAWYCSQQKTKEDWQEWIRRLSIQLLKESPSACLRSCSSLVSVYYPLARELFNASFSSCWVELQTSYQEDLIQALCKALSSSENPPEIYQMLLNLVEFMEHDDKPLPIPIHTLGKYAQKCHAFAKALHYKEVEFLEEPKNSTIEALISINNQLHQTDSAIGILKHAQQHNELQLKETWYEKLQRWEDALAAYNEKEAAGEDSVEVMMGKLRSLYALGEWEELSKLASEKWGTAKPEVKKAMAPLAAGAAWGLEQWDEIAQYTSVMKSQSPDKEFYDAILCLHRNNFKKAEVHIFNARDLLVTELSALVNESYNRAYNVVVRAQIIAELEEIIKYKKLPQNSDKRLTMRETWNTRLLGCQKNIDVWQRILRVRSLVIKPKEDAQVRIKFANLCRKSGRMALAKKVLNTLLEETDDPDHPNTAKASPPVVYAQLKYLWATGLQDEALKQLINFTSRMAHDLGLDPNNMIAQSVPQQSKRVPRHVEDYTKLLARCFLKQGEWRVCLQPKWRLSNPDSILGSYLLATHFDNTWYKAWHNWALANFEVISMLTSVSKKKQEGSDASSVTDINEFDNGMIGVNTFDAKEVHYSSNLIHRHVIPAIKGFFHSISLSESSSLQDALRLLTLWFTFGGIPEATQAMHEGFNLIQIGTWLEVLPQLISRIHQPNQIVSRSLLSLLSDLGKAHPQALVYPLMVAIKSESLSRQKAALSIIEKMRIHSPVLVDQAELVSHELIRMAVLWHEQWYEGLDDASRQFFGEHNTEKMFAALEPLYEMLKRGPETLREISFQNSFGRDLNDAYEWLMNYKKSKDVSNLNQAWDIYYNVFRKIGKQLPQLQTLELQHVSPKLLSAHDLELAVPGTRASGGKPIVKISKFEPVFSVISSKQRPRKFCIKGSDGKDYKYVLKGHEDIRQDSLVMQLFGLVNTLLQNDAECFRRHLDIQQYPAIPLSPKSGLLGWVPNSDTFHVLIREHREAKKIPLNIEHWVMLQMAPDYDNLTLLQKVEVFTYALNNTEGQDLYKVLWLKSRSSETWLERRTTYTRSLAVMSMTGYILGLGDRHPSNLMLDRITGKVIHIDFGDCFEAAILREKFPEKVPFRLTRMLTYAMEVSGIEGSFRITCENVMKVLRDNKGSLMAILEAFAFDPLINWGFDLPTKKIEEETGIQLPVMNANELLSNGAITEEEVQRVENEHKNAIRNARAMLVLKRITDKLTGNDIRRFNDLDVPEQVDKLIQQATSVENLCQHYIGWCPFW

| Binder | binding result [1] | binding result (Tor2 in the TOROID) | binding result [2] |
| --- | --- | --- | --- |
| B1 | binds | binds | – |
| Lst8 in the TOROID (natural protein, UniProt P41318 1-303, looked up, Lst8, S. cerevisiae; source: S. cerevisiae KOG1-TAP ∆tor1 cells grown PDS, purified as TOROID) MSVILVSAGYDHTIRFWEALTGVCSRTIQHSDSQVNRLEITNDKKLLATAGHQNVRLYDIRTTNPNPVASFEGHRGNVTSVSFQQDNRWMVTSSEDGTIKVWDVRSPSIPRNYKHNAPVNEVVIHPNQGELISCDRDGNIRIWDLGENQCTHQLTPEDDTSLQSLSMASDGSMLAAANTKGNCYVWEMPNHTDASHLKPVTKFRAHSTYITRILLSSDVKHLATCSADHTARVWSIDDDFKLETTLDGHQRWVWDCAFSADSAYLVTASSDHYVRLWDLSTREIVRQYGGHHKGAVCVALNDV | – | binds | binds |
